Experimental data published in doi:10.1101/2021.10.21.465318.
Like-named read-outs stand apart in the source and are kept apart here.

How the values were obtained:
Assay in all cases: FRET
[1] = target: T1, HsMSH2;HsMSH6 (sortase/Cy3) (Homo sapiens;Homo sapiens, UniProt P43246;P52701 1-934;1-1360, |)
[2] = target: T2, HsMSH2;HsMSH3 (sortase/Cy3) (Homo sapiens;Homo sapiens, UniProt P43246;P20585 1-934;1-1137, |)
[3] = target: T1, HsMSH2;HsMSH6 (sortase/Cy3); remark: listed apart in the source
[4] = target: T2, HsMSH2;HsMSH3 (sortase/Cy3); remark: listed apart in the source
[5] = target: T2, HsMSH2;HsMSH3 (sortase/Cy3); remark: listed apart in the source
[6] = target: T1, HsMSH2;HsMSH6 (sortase/Cy3); remark: listed apart in the source

B1: 41-mer G/T Cy5 (dsDNA)
DNA 1: GCTTAGGATCATCGAGGATCGAGCTCGGTGCAATTCAGCGG
DNA 2: CCGCTGAATTGCACCGAGCTTGATCCTGCATGATCCTAAGC
modifications: amino-C6 dT at position 12 of top strand
B1: binds [1]; no binding [2].

B2: 41-mer G/+(CA)4 Cy5 (dsDNA)
DNA 1: GCTTAGGATCATCGAGGATCGAGCTCGGTGCAATTCAGCGG
DNA 2: CCGCTGAATTGCACCGAGCTCACACACACGATCCTCGATGATCCTAAGC
modifications: amino-C6 dT at position 12 of top strand
B2: binds [3]; binds [4].

B3: 41-mer G/C Cy5 (dsDNA)
DNA 1: GCTTAGGATCATCGAGGATCGAGCTCGGTGCAATTCAGCGG
DNA 2: CCGCTGAATTGCACCGAGCTCGATCCTCGATGATCCTAAGC
modifications: amino-C6 dT at position 12 of top strand
B3: no binding [5]; no binding [6].
